Results on two variants are retold here after article PMC10184318, “The fission yeast cytokinetic ring component Fic1 promotes septum formation” (Biology Open, 2023).

The labels stand for the following.
B1: Fic1-MBP [S. pombe] / Cyk3-SH3-GST (aa1-66) [S. pombe] (parent complex)
chain 1: MSKNPLGTLVVRIWKAKNLPNKALVGKQSPYCVCRVGEVVKRTQTDKRSGQEPSWNAVLEFNIPSESYHIMKITVFHEGFRKHPHLIGDTVLSFEKAMKEELQSEWYELKNEFQFAGELSVQFKFIPTDPLYFDRASSKPVLQFPYSSVAALTPVPKKPSKPSKPRKKVPVSHPLPPTPPSREEHVSVPRESSLFTYEDDPLPSFPSPYMVDDYYTQDVFVSDNVNDYSYGVQNPTNPRLSVEDYDANHSSLPPVPPPHLILPTASSSQIFH
chain 2: MSIPKQLPCMVRALYAWPGEREGDLKFTEGDLIECLSIGDGKWWIGRHINTNTQGIFPSNFVHCLD

The variants in the assay derive from B1. Put plainly: in vitro binding assay (GST pull-down, Coomassie Blue-stained SDS-PAGE, band quantification); parent: 1; read off a plot.
Regarding chain 1 MSKNPLGTLVVRIWKAKNLPNKALVGKQSPYCVCRVGEVVKRTQTDKRSGQEPSWNAVLEFNIPSESYHIMKITVFHEGFRKHPHLIGDTVLSFEKAMKEELQSEWYELKNEFQFAGELSVQFKFIPTDPLYFDRASSKPVLQFPYSSVAALTPVPKKPSKPSKPRKKVPVSHALPATPPSREEHVSVPRESSLFTYEDDPLPSFPSPYMVDDYYTQDVFVSDNVNDYSYGVQNPTNPRLSVEDYDANHSSLPPVPPPHLILPTASSSQIFH [chain 1 P174A, chain 1 P177A], the response was approximately 0.35 A.U.
The result for chain 1 MSKNPLGTLVVRIWKAKNLPNKALVGKQSPYCVCRVGEVVKRTQTDKRSGQEPSWNAVLEFNIPSESYHIMKITVFHEGFRKHPHLIGDTVLSFEKAMKEELQSEWYELKNEFQFAGELSVQFKFIPTDPLYFDRASSKPVLQFPYSSVAALTPVPKKPSKPSKPRKKVPVSHPLAPTAPSREEHVSVPRESSLFTYEDDPLPSFPSPYMVDDYYTQDVFVSDNVNDYSYGVQNPTNPRLSVEDYDANHSSLPPVPPPHLILPTASSSQIFH [chain 1 P176A, chain 1 P179A] reads approximately 0.19 A.U.
